# B1: 抗CD3单域抗体 A30249 (VHH)
# VHH: QVKLEESGGGLVQAGGSLRVSCTASGRTFDTMGWFRQAPGKEREFVAAVRWSSGNTLYGNTVKGRFTISRDTATNTVYLQMSSLKHEDTAVYYCAARVGGRGAADHWGQGTQVTVSS
# notes: Llama sdAb from a phage display library; Tested as sdAb-SASA protein in crude expression medium / culture supernatant, not purified; also called sdAb; sdAb-SASA; not shown: SASA fusion partner from the pFASEBA vector (sdAb-SASA protein in expression medium)
# Experiments:
# [1] = molecular target: CD3 on Jurkat靶标细胞 (human) (UniProt P07766); experiment: flow cytometry, culture supernatant of the negative control sdAb on Jurkat cells (TG1 background supernatant: 132.03)
# CD3-His蛋白(MP-5) = molecular target: T1, CD3-His蛋白(MP-5) (human, UniProt P07766 23-126); experiment: BLI (Octet RED96) off-rate screen, sdAb-SASA from expression medium captured on BSA-coated biosensor, 100 nM CD3 in solution, 30°C, 1:1 Langmuir model
# T1 construct: Immunogen and panning antigen; also called CD3蛋白; not shown: His tag
# T1 sequence (P07766 23-126): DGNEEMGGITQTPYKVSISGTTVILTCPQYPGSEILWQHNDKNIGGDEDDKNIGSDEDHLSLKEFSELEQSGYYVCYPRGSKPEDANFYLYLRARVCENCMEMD
# [2] = molecular target: CD3 on Jurkat靶标细胞 (human) (UniProt P07766); experiment: flow cytometry, culture supernatant on Jurkat cells
Molecule,MFI [1] [MFI],koff (CD3-His蛋白(MP-5)) [s⁻¹],MFI [2] [MFI]
NC-sdAb(相同形式的非相关性sdAb) (VHH),115,–,–
B1,–,4.92e-05,217
